Substitutions are numbered along the chain they refer to. Names and notes keep the numbering of the source. Ends that are not written are not given here.
T1: (GA)8 repeats
T1 construct: also called poly-(GA)8; GA (e.g., poly(GA))
T1 peptide: GAGAGAGAGAGAGAGA

T2: synthesized dipeptide repeat protein (GA)15: H-CHHHHHH(GA)15-OH
T2 construct: also called poly-GA DPR peptide; uncoupled (GA)15 peptide
T2 peptide: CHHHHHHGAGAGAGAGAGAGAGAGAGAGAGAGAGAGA

T3: synthesized dipeptide repeat protein (GA)10: H-(GA)10HHHHHH-NH2 (C-terminal amide (-NH2))
T3 peptide: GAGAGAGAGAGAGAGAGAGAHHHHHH

T4: synthesized dipeptide repeat protein (GA)20: H-(GA)20HHHHHH-NH2 (C-terminal amide (-NH2))
T4 peptide: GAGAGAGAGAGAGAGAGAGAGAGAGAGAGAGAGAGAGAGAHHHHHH

T5: synthesized dipeptide repeat protein (GA)6: H-(GA)6HHHHHH-NH2
T5 peptide: H-GAGAGAGAGAGAHHHHHH-NH2

T6: synthetic biotin-8xGA (also: biotin, position not given here)
T6 construct: also called synthetic 8×GA; poly-(GA)8 peptide
T6 peptide: GAGAGAGAGAGAGAGA

B1: Fab fragment of DPR Ab-1 (Fab, V domains shown)
VH: QVQLVESGGGVVQPGRSLRLSCAASGFTFSNHAMHWVRQAPGKGLEWVAVISYDGENTYYADSIEGRFTISRDNFKNTLFLQMYSLTADDTAMYFCARGGRRGHFTSYYLDYWGQGTLVTVSS
VL: DIQMTQSPSSLSASVGDRVTITCRASQNIDKYLNWYQQIPGKAPKLLIYAASSLHSGVPSRFSGSGSGTDFSLTISSLQPEDFAIYYCQQSYSSFRTFGQGTKLEIK
notes: also called DPR Ab-1 Fab
B2: NI-308.5J10 recombinant human-derived monoclonal antibody (human IgG1, kappa) (antibody, V domains shown)
VH: SETLSLTYTVLGGSVSDYYWSCIRQPAGKGLEWIGRTYTNGKTTYTYNPSLESRLSLSIDTSMNQFSLKLTSVTAADTAVYYCARWGAVTGDYYYGMDVWGPGTLVTVSS
VL: EIVLTQSPLSLSVTPGEPASISCRSPRSLLHTNGYTYLDWYLQRPGQSPQLLIFLASNRASGVPDRFSGSGSGTNFTLRISGVEADDVGVYYCMQGLQPSWTFGQGTKVEIKR
notes: Full hIgG1 heavy chain (plasmid SDD151) and kappa light chain (plasmid SDD152); also called 5J10 hIgG1
B3: NI-308.5J10 variant WT-Fab-6His / N75D light chain (Fab, V domains shown)
VH: B2 VH
VL: B2 VL with N75D
notes: Plasmids SDD178 and SDD177; also called LC N75D Fab; 5J10-LC N75D Fab
B4: NI-308.5J10 variant N54S-Fab-6His / N75D light chain (Fab, V domains shown)
VH: B2 VH with N40S
VL: B2 VL with N75D
notes: Plasmids SDD179 and SDD177; also called HC N54S/LC N75D Fab; 5J10-LC N75D, HC N54S Fab
B5: NI-308.5J10 variant G55S-Fab-6His / N75D light chain (Fab, V domains shown)
VH: B2 VH with G41S
VL: B2 VL with N75D
notes: Plasmids SDD181 and SDD177; also called HC G55S/LC N75D Fab; 5J10-LC N75D, HC G55S Fab
B6: NI-308.5J10 variant G55T-Fab-6His / N75D light chain (Fab, V domains shown)
VH: B2 VH with G41T
VL: B2 VL with N75D
notes: Plasmids SDD182 and SDD177; also called HC G55T/LC N75D Fab; 5J10-LC N75D, HC G55T Fab
B7: NI-308.5J10 WT Fab-6His (WT-Fab-6His / WT light chain) (Fab, V domains shown)
VH: B2 VH
VL: B2 VL
notes: The heavy chain is VH-CH1 with a C-terminal hexahistidine tag; also called 5J10 Fab
B8: NI-308.5J10 variant N54T-Fab-6His / N75D light chain (Fab, V domains shown)
VH: B2 VH with N40T
VL: B2 VL with N75D
notes: Plasmids SDD180 and SDD177; also called HC N54T/LC N75D Fab; 5J10-LC N75D, HC N54T Fab

How the values were obtained:
[1] = target: T1, (GA)8 repeats; test: SPR, inset: Fab bound (RU) plotted against [Fab] from 0 to 20000 nM with a fitted saturation curve
[2] = target: T7, BSA-coupled (GA)15 dipeptide repeat protein peptide (H-CHHHHHH(GA)15-OH conjugated via SMCC to bovine serum … (bovine, UniProt P02769 25-607, conjugated via a bifunctional linker (SMCC) to bovine serum albumin (BSA))); test: indirect ELISA, coated BSA-coupled peptide
T7 construct: also called BSA-coupled peptide; BSA-conjugated poly-GA
T7 sequence (P02769 25-607 limits assumed): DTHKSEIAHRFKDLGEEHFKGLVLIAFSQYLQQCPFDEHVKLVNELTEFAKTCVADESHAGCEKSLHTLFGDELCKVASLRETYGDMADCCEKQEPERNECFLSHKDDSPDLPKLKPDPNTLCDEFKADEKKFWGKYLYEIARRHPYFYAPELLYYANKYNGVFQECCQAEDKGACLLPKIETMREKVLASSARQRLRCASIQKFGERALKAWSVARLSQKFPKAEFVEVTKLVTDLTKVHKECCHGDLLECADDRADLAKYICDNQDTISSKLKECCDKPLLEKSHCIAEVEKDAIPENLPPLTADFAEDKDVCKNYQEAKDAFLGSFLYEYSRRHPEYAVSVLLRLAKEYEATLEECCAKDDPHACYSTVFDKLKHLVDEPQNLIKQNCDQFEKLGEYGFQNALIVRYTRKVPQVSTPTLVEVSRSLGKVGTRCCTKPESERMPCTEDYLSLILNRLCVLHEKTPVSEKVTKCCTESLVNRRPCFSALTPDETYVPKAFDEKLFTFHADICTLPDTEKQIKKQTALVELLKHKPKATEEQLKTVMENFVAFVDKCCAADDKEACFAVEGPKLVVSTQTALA
Experimental: (§1) In brief, poly-GA dipeptide repeat proteins were synthesized and purified by Schafer-N(Copenhagen, Denmark): (GA)₁₅: H-CHHHHHH(GA)₁₅-OH (SEQ ID NO: 61). Poly-GA DPR protein peptides were then conjugated via a bifunctional linker (SMCC) to bovine serum albumin (BSA). 96-well microplates (Corning Incorporated, Corning, USA) were coated with poly-GA BSA-coupled or uncoupled dipeptide repeat protein peptides at a concentration of 5 μg/ml in coating buffer (15 mM Na₂CO₃, 35 mM NaHCO₃, pH 9.42). Non-specific binding sites were blocked for 1 h at RT with PBS/0.1% Tween®-20 containing 2% BSA (Sigma-Aldrich, Buchs, Switzerland). […] Binding was determined by measurement of HRP activity in a standard colorimetric assay.
(§2) EC₅₀ values were estimated by non-linear regression using GraphPad Prism software (San Diego, USA).

[3] = target: T2, synthesized dipeptide repeat protein …; test: indirect ELISA, coated peptide
Experimental: In brief, dipeptide repeat proteins were synthesized and purified by Schafer-N(Copenhagen, Denmark): (GA)₁₅: H-CHHHHHH(GA)₁₅-OH (SEQ ID NO: 61); (GP)₁₅: H-C(GP)₁₅-OH (SEQ ID NO: 62); (GR)₁₅: H-C(GR)₁₅-OH (SEQ ID NO: 63); (PA)₁₅: H-C(PA)₁₅-OH (SEQ ID NO: 64); (PR)₁₅: H—C(PR)₁₅-OH (SEQ ID NO: 65). 96-well microplates (Corning Incorporated, Corning, USA) were coated with dipeptide repeat protein peptides at a concentration of either 5 μg/ml or 20 μg/ml in coating buffer (15 mM Na₂CO₃, 35 mM NaHCO₃, pH 9.42). Non-specific binding sites were blocked for 1 h at RT with PBS/0.1% Tween®-20 containing 2% BSA (Sigma-Aldrich, Buchs, Switzerland). […] Binding was determined by measurement of HRP activity in a standard colorimetric assay.
as §2

[4] = target: T3, synthesized dipeptide repeat protein …; test: indirect ELISA, peptide coated at 50 µg/ml
Text: (§3) In brief, Dipeptide repeat protein peptides were synthesized and purified by Schafer-N(Copenhagen, Denmark): GA₂₀: H-(GA)₂₀HHHHHH-NH₂ (SEQ ID NO: 71); GA₁₀: H-(GA)₁₀HHHHHH-NH₂ (SEQ ID NO: 72); GA₆: H-(GA)₆HHHHHH-NH₂ (SEQ ID NO: 73); GA₅: H-(GA)₅HHHHHH-NH₂ (SEQ ID NO: 74); GA₄: H-(GA)₄HHHHHH-NH₂ (SEQ ID NO: 75); GA₃: H-(GA)₃HHHHHH-NH₂ (SEQ ID NO: 76); GA₂: H-(GA)₂HHHHHH-NH₂ (SEQ ID NO: 77). 96-well microplates (Corning Incorporated, Corning, USA) were coated with dipeptide repeat protein peptides at a concentration of 50 μg/ml in coating buffer (15 mM Na₂CO₃, 35 mM NaHCO₃, pH 9.42). Non-specific binding sites were blocked for 1 h at RT with PBS/0.1% Tween®-20 containing 2% BSA (Sigma-Aldrich, Buchs, Switzerland). […] Binding was determined by measurement of HRP activity in a standard colorimetric assay. EC₅₀ values were estimated by non-linear regression using GraphPad Prism software (San Diego, USA).
(§4) High affinity binding was detected for poly-GA DPRs harboring 10 (SEQ ID NO: 79) or 20 (GA)-repeats (SEQ ID NO: 82), reflected in an EC₅₀ in the subnanomolar range (Table 5, FIG. 6).

[5] = target: T4, synthesized dipeptide repeat protein …; test: indirect ELISA, peptide coated at 50 µg/ml
Text: as §3, §4

[6] = target: T5, synthesized dipeptide repeat protein …; test: indirect ELISA, peptide coated at 50 µg/ml
Text: as §3, §4

[7] = target: T2, synthesized dipeptide repeat protein …; test: indirect ELISA, coated uncoupled peptide
Experimental: as §1, §2

[8] = target: T2, synthesized dipeptide repeat protein …; test: BLI (Octet RED96), peptide immobilised on AR2G sensor, IgG as analyte, 1:1 model
Experimental: Poly-GA dipeptide repeat protein peptides were synthesized and purified by Schafer-N (Copenhagen, Denmark): (GA)₁₅: H-CHHHHHH(GA)₁₅-OH (SEQ ID NO: 61). Pure, lyophilized (GA)₁₅ (SEQ ID NO: 66) was dissolved in DMSO (Sigma-Aldrich, Buchs, Switzerland) at a concentration of 10 mg/ml and stored at −20° C. In brief, bio-layer interferometry experiments were performed on Octet RED96 instrument (Pall ForteBio LLC, Fremont, USA). Octet amine-reactive (AR2G) biosensors were used for covalent immobilization of (GA)₁₅ (SEQ ID NO: 66) dipeptide repeat protein peptides. AR2G biosensors were activated with EDC (1-Ethyl-3-[3-dimethylaminopropyl] carbodiimide hydrochloride; 20 mM in water; Pall ForteBio LLC, Fremont, USA) and s-NHS (N-hydroxysulfosuccinimide; 10 mM in water; Pall ForteBio LLC, Fremont, USA) for 300 s, followed by loading of the biosensor surface with 5 μg/ml of (GA)₁₅ (SEQ ID NO: 66) peptides in 10 mM acetate buffer pH 6 (Pall ForteBio LLC, Fremont, USA) for 600 s. […] Antibody dissociation was evaluated in kinetics buffer for 800 s. All binding data were referenced by collecting data with a PBS only reference. Data analysis was performed by using the Octet system software (Pall ForteBio LLC, Fremont, USA) with simultaneous Kₐ/Kd global fitting with 1:1 interaction model. BLI sensorgrams were drawn with the Prism software from GraphPad (San Diego, USA) upon fitting.

[9] = target: T6, synthetic biotin-8xGA; test: SPR (Biacore T200), biotin-8xGA captured on Biotin CAPture chip, Fab as analyte, 1:1 model
Experimental: Variant Fabs were assessed for binding to synthetic poly-GA by SPR, using a Biacore T200 instrument (GE Healthcare). Synthetic biotin-8xGA was captured on a Biotin CAPture chip (GE Healthcare) at […] from solutions at 5 ng/mL in SPR buffer (10 mM HEPES, pH 7.2, 150 mM NaCl, 3.4 mM EDTA, 0.05% BSA, 0.005% surfactant P20) using reagents and protocols provided by the manufacturer. A series of solutions of variant antibody Fab fragments at increasing concentrations of 1.23, 3.7, 11, 33, and 100 nM in SPR buffer were injected over the biotin-8xGA coated sensor chip for 4 min each at 30 μL/min followed by buffer wash, and the binding response relative to a reference sensor with no biotin-8xGA was recorded during injections and for 15 min after the final injection. Data were analyzed with Biacore T200 Evaluation Software v3.0 using a 1:1 binding model.

Binder	Kd [9] [nM]	koff [9] [s⁻¹]	kon [9] [M⁻¹ s⁻¹]	also measured
B1				Kd [1]: 4600 nM
B2				EC50 [2]: 0.16 nM; EC50 [3]: 0.26 nM; EC50 [4]: 0.3 nM; EC50 [5]: 0.29 nM; EC50 [6]: 13.8 nM; EC50 [7]: 0.23 nM; Kd [8]: 0.15 nM; koff [8]: 2.4e-05 s⁻¹; kon [8]: 163000 M⁻¹ s⁻¹
B3	26	0.0059	230000	
B4	21	0.006	290000	
B5	24	0.0044	180000	
B6	22	0.0044	200000	
B7	28	0.0078	270000	
B8	30	0.0076	260000	
